Data taken from publication PMC12096953, “Insights into heme degradation and hydrogen peroxide-induced dimerization of human neuroglobin” (Bioscience Reports, 2025).
Substitutions are numbered along the chain they refer to. Names and notes keep the numbering of the source.

Legend:
[1] = biological target: the molecule itself; experiment: SEC; HPLC-SEC of wild-type hNgb, 1 µg/µL, 15-fold H2O2, 20 h at 4°C, with or without the spin trap MNP (10 µg/µL)
[2] = biological target: the molecule itself; experiment: SEC-MALS; HPLC-SEC-PDA-MALS, Superdex 200 10/300 GL, 1x PBS pH 7.4, 25°C, detection at 412 nm; 1 μg/μL protein incubated 20 h at 4°C with different molar excess of H2O2 before the run; monomer to covalent dimer

B1: wild-type human neuroglobin (natural protein, UniProt Q9NPG2 1-151, looked up)
chain: MERPEPELIRQSWRAVSRSPLEHGTVLFARLFALEPDLLPLFQYNCRQFSSPEDCLSSPEFLDHIRKVMLVIDAAVTNVEDLSSLEEYLASLGRKHRAVGVKLSSFSTVGESLLYMLEKCLGPAFTPATRAAWSQLYGAVVQAMSRGWDGE
notes: human neuroglobin (hNgb), described as a protein of 151 amino acids; Heme b protein; The dimers seen arise after H2O2 treatment and are held by covalent Tyr-Tyr links; also called hNgb; wild-type hNgb
percent dimerization (15-fold H2O2, with MNP) [1]: 8.1%
percent dimerization (15-fold H2O2, without MNP) [1]: 18.7%
stoichiometry N [2]: 2

B2: human neuroglobin Y44F variant (natural protein, UniProt Q9NPG2 1-151, looked up)
chain: B1 chain with Y44F
notes: human neuroglobin (hNgb) with Y44F
stoichiometry N [2]: 2

B3: human neuroglobin Y44A variant (natural protein, UniProt Q9NPG2 1-151, looked up)
chain: B1 chain with Y44A
notes: human neuroglobin (hNgb) with Y44A; also called hNgb Y44A
stoichiometry N [2]: 2

B4: human neuroglobin Y44AC46AC55A variant (natural protein, UniProt Q9NPG2 1-151, looked up)
chain: B1 chain with Y44A, C46A, C55A
notes: human neuroglobin (hNgb) with Y44A, C46A and C55A; also called triple variant
stoichiometry N [2]: 2
